Reference: the Immune Epitope Database (IEDB)
Each block holds one sequence with its values, some of them ahead of it.

Key:
Experiment in all cases: IEDB peptide-MHC binding, purified MHC/competitive/radioactivity; filed as Kd, often an IC50 or EC50 that approximates it; ≥ and ≤ were set here for values at or beyond the usual limits of such assays
HLA-A*02:06 = target: HLA-A*02:06
HLA-A*02:03 = target: HLA-A*02:03
HLA-A*02:02 = target: HLA-A*02:02
HLA-A*68:01 = target: HLA-A*68:01
HLA-A*03:01 = target: HLA-A*03:01
HLA-A*33:01 = target: HLA-A*33:01
HLA-A*11:01 = target: HLA-A*11:01
HLA-A*31:01 = target: HLA-A*31:01
[1] = source organism: Vaccinia virus WR
[2] = source organism: SARS coronavirus Tor2
[3] = source organism: Dengue virus 4 Dominica/814669/1981
[4] = source organism: Dengue virus 4 Philippines/H241/1956
[5] = source organism: Dengue virus 3 Martinique/1243/1999
[6] = source organism: Dengue virus 1 Brazil/97-11/1997
[7] = source organism: Lymphocytic choriomeningitis virus (strain Armstrong)
[8] = source organism: Mammarenavirus lassaense
[9] = source organism: Mammarenavirus whitewaterense
[10] = source organism: Lassa virus Josiah

Sequence: SLTQVKELGI
- Kd (HLA-A*02:06; [1]): 157 nM
- Kd (HLA-A*02:03; [1]): 75.4 nM
- Kd (HLA-A*02:02; [1]): 9.75 nM

Sequence: SMWALVISV
- Kd (HLA-A*02:06; [2]): 0.793 nM
- Kd (HLA-A*02:03; [2]): 4.43 nM
- Kd (HLA-A*02:02; [2]): 6.12 nM

Sequence: MIHKTYIDV
- Kd (HLA-A*02:06; [1]): 126 nM
- Kd (HLA-A*02:03; [1]): 15.2 nM
- Kd (HLA-A*02:02; [1]): 1400 nM

Sequence: SLDQTHIKTI
- Kd (HLA-A*02:06; [1]): 2460 nM
- Kd (HLA-A*02:03; [1]): 14.6 nM
- Kd (HLA-A*02:02; [1]): 1430 nM

Sequence: LLFQLCTFT
- Kd (HLA-A*02:06; [2]): 11.1 nM
- Kd (HLA-A*02:03; [2]): 3.77 nM
- Kd (HLA-A*02:02; [2]): 22.3 nM

- Kd (HLA-A*02:06; source organism: Homo sapiens): ≥ 97400 nM
Sequence: DLEALKKETI

Sequence: ALVLLILMTA
- Kd (HLA-A*02:06; [2]): 61.4 nM
- Kd (HLA-A*02:03; [2]): 50.7 nM
- Kd (HLA-A*02:02; [2]): 67.2 nM

Sequence: NASKTINALV
- Kd (HLA-A*02:06; [1]): 3220 nM
- Kd (HLA-A*02:03; [1]): 274 nM
- Kd (HLA-A*02:02; [1]): 765 nM

Sequence: ILNAHKDGV
- Kd (HLA-A*02:03; [3]): 329 nM

Sequence: RASTTENAA
- Kd (HLA-A*02:06; [1]): 12100 nM
- Kd (HLA-A*02:03; [1]): ≥ 66700 nM
- Kd (HLA-A*02:02; [1]): ≥ 26700 nM

Sequence: FLDWIKDIM
- Kd (HLA-A*02:06; [1]): 162 nM
- Kd (HLA-A*02:03; [1]): 297 nM
- Kd (HLA-A*02:02; [1]): 0.78 nM

Sequence: RVILAGPIPV
- Kd (HLA-A*02:06; [4]): 33.5 nM
- Kd (HLA-A*02:03; [4]): 8.4 nM

Sequence: IASILSLET
- Kd (HLA-A*02:06; [1]): 318 nM
- Kd (HLA-A*02:03; [1]): 7480 nM
- Kd (HLA-A*02:02; [1]): 3670 nM

Sequence: KVDNFTMGV
- Kd (HLA-A*02:06; [5]): 4.24 nM

Sequence: IQKDINITHT
- Kd (HLA-A*02:06; [1]): ≥ 61700 nM
- Kd (HLA-A*02:03; [1]): 340 nM
- Kd (HLA-A*02:02; [1]): 1360 nM

Sequence: KIMEIVSHL
- Kd (HLA-A*02:06; [1]): 29.7 nM
- Kd (HLA-A*02:03; [1]): 10.3 nM
- Kd (HLA-A*02:02; [1]): 79 nM

Sequence: CTINVNSLAL
- Kd (HLA-A*02:06; [1]): 216 nM
- Kd (HLA-A*02:03; [1]): 1040 nM
- Kd (HLA-A*02:02; [1]): 494 nM

Sequence: VVYHDDDNTT
- Kd (HLA-A*02:06; [1]): 3920 nM
- Kd (HLA-A*02:03; [1]): 12600 nM
- Kd (HLA-A*02:02; [1]): 1860 nM

Sequence: KIEDLINQLV
- Kd (HLA-A*02:06; [1]): 145 nM
- Kd (HLA-A*02:03; [1]): 70.8 nM
- Kd (HLA-A*02:02; [1]): 87 nM

Sequence: TAIRAGYSIV
- Kd (HLA-A*02:06; [1]): 8590 nM
- Kd (HLA-A*02:03; [1]): 71.8 nM
- Kd (HLA-A*02:02; [1]): 6820 nM

Sequence: YVLGVFLRKL
- Kd (HLA-A*02:06; [3]): 81.5 nM

Sequence: ALDGVLSTFV
- Kd (HLA-A*02:06; [2]): 140 nM
- Kd (HLA-A*02:03; [2]): 27.9 nM
- Kd (HLA-A*02:02; [2]): 3.26 nM

Sequence: HTYHLENDKI
- Kd (HLA-A*02:06; [1]): 1990 nM
- Kd (HLA-A*02:03; [1]): 13700 nM
- Kd (HLA-A*02:02; [1]): 1790 nM

Sequence: AMHSALAGA
- Kd (HLA-A*02:03; [3]): 8.58 nM

Sequence: YMVTDKTAYI
- Kd (HLA-A*02:06; [1]): 6.12 nM
- Kd (HLA-A*02:03; [1]): 0.277 nM
- Kd (HLA-A*02:02; [1]): 0.225 nM

- Kd (HLA-A*02:03; source organism: Homo sapiens): 19000 nM
Sequence: ELAAHQKKIL

Sequence: KLRDSYTQV
- Kd (HLA-A*02:03; source organism: Dengue virus 1 Nauru/West Pac/1974): 16 nM

Sequence: FKMRPMFAV
- Kd (HLA-A*02:06; [6]): 55.5 nM

Sequence: AIVLEFFMMV
- Kd (HLA-A*02:06; [5]): 7.87 nM

Sequence: TYLGPLSCK
- Kd (HLA-A*68:01; [7]): 375 nM
- Kd (HLA-A*03:01; [7]): 165 nM
- Kd (HLA-A*33:01; [7]): 0.154 µM
- Kd (HLA-A*11:01; [7]): 21.3 nM
- Kd (HLA-A*31:01; [7]): 1.69 µM

Sequence: LSCTKNTSHH
- Kd (HLA-A*68:01; [8]): ≥ 43700 nM
- Kd (HLA-A*03:01; [8]): ≥ 70000 nM
- Kd (HLA-A*33:01; [8]): ≥ 70 µM
- Kd (HLA-A*11:01; [8]): ≥ 69700 nM
- Kd (HLA-A*31:01; [8]): ≥ 43.1 µM

Sequence: ASANLAATK
- Kd (HLA-A*68:01; [2]): 78.3 nM
- Kd (HLA-A*03:01; [2]): 77.1 nM
- Kd (HLA-A*33:01; [2]): ≥ 77.7 µM
- Kd (HLA-A*11:01; [2]): 14.4 nM
- Kd (HLA-A*31:01; [2]): 1.03 µM

Sequence: FMTATPPGTA
- Kd (HLA-A*02:03; [5]): 2.17 nM

Sequence: QSYKETVHK
- Kd (HLA-A*68:01; [1]): 37.6 nM
- Kd (HLA-A*03:01; [1]): 21.7 nM
- Kd (HLA-A*33:01; [1]): ≥ 77.7 µM
- Kd (HLA-A*11:01; [1]): 43.4 nM
- Kd (HLA-A*31:01; [1]): 5.55 µM

Sequence: FMSHVKSVTK
- Kd (HLA-A*68:01; [1]): 31.6 nM
- Kd (HLA-A*03:01; [1]): 7.73 nM
- Kd (HLA-A*33:01; [1]): 0.0989 µM
- Kd (HLA-A*11:01; [1]): 3.28 nM
- Kd (HLA-A*31:01; [1]): 0.279 µM

Sequence: SYQYLIIQNR
- Kd (HLA-A*68:01; [7]): 1690 nM
- Kd (HLA-A*03:01; [7]): 9780 nM
- Kd (HLA-A*33:01; [7]): 0.0543 µM
- Kd (HLA-A*11:01; [7]): ≥ 69700 nM
- Kd (HLA-A*31:01; [7]): 0.000953 µM

Sequence: GIADIRDKY
- Kd (HLA-A*68:01; [1]): 2340 nM
- Kd (HLA-A*03:01; [1]): ≥ 78000 nM
- Kd (HLA-A*33:01; [1]): ≥ 77.7 µM
- Kd (HLA-A*11:01; [1]): 8970 nM
- Kd (HLA-A*31:01; [1]): ≥ 77.9 µM

Sequence: PCMINDTHFL
- Kd (HLA-A*68:01; [9]): ≥ 40100 nM
- Kd (HLA-A*03:01; [9]): ≥ 70000 nM
- Kd (HLA-A*33:01; [9]): ≥ 48.5 µM
- Kd (HLA-A*11:01; [9]): ≥ 46800 nM
- Kd (HLA-A*31:01; [9]): 11.6 µM

Sequence: DAHKKNLYDH
- Kd (HLA-A*68:01; [10]): ≥ 70100 nM
- Kd (HLA-A*03:01; [10]): ≥ 70000 nM
- Kd (HLA-A*33:01; [10]): ≥ 70 µM
- Kd (HLA-A*11:01; [10]): ≥ 69700 nM
- Kd (HLA-A*31:01; [10]): 3.43 µM

Sequence: TQHGTILIKV
- Kd (HLA-A*02:06; [5]): 526 nM

Sequence: DVSMMSMYGK
- Kd (HLA-A*68:01; [1]): 1.21 nM
- Kd (HLA-A*03:01; [1]): 149 nM
- Kd (HLA-A*33:01; [1]): 0.584 µM
- Kd (HLA-A*11:01; [1]): 1.28 nM
- Kd (HLA-A*31:01; [1]): 0.231 µM

Sequence: NIAEYIAGLK
- Kd (HLA-A*68:01; [1]): 14.5 nM
- Kd (HLA-A*03:01; [1]): 132 nM
- Kd (HLA-A*33:01; [1]): ≥ 25.2 µM
- Kd (HLA-A*11:01; [1]): 518 nM
- Kd (HLA-A*31:01; [1]): ≥ 70 µM

Sequence: SRIFEDLVWK
- Kd (HLA-A*68:01; [9]): 572 nM
- Kd (HLA-A*03:01; [9]): 872 nM
- Kd (HLA-A*33:01; [9]): ≥ 59.1 µM
- Kd (HLA-A*11:01; [9]): 620 nM
- Kd (HLA-A*31:01; [9]): 8.38 µM

Sequence: SVLCVKKFY
- Kd (HLA-A*68:01; [1]): 2100 nM
- Kd (HLA-A*03:01; [1]): 13300 nM
- Kd (HLA-A*33:01; [1]): 12.9 µM
- Kd (HLA-A*11:01; [1]): 372 nM
- Kd (HLA-A*31:01; [1]): 7.98 µM

Sequence: YSKLTKDRK
- Kd (HLA-A*68:01; [1]): 52.3 nM
- Kd (HLA-A*03:01; [1]): ≥ 78000 nM
- Kd (HLA-A*33:01; [1]): ≥ 23.9 µM
- Kd (HLA-A*11:01; [1]): 4850 nM
- Kd (HLA-A*31:01; [1]): 4.32 µM

Sequence: PSIFLIITK
- Kd (HLA-A*68:01; [1]): 4130 nM
- Kd (HLA-A*03:01; [1]): 166 nM
- Kd (HLA-A*33:01; [1]): 10.9 µM
- Kd (HLA-A*11:01; [1]): 36 nM
- Kd (HLA-A*31:01; [1]): 9.35 µM

Sequence: NLKYSVIVTV
- Kd (HLA-A*02:03; [6]): 5.6 nM

Sequence: FLIVSLCPTK
- Kd (HLA-A*68:01; [1]): 977 nM
- Kd (HLA-A*03:01; [1]): 219 nM
- Kd (HLA-A*33:01; [1]): 15.1 µM
- Kd (HLA-A*11:01; [1]): 2.2 nM
- Kd (HLA-A*31:01; [1]): ≥ 25.6 µM

Sequence: SLNSMYTRLR
- Kd (HLA-A*68:01; [1]): 81.2 nM
- Kd (HLA-A*03:01; [1]): 47.2 nM
- Kd (HLA-A*33:01; [1]): 0.000997 µM
- Kd (HLA-A*11:01; [1]): 1780 nM
- Kd (HLA-A*31:01; [1]): 0.000291 µM
